Data published in the supplement of paper PMC10567573.

B1: STX5 (parent)
chain: ESTIVELGSIFQQLAHMVKEQEET

Variants of: B1
Experiment: protein stability index of a GFP-peptide fusion (GPS, HEK-293T) (PSI 1-6); higher = more stable
Settings: c terminus: a fixed tail appended
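Note: lentivirally expressed fusions sorted by FACS into six bins by GFP to DsRed ratio, PSI derived from sequencing read proportions per bin multiplied by bin number.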

| Variant | protein stability index |
| --- | --- |
| ESTIVELGSIFQQLAHMVKQQEET | 1.12 |
| ESTIVELGSIFQQLAHMVKHQEET | 1.62 |
| ESTIVELGSIFQQLAHMVKCQEET | 2.54 |
| ESTIVELGSIFQQLAHMVKMQEET | 4.03 |
| ESTIVELGSIFQQLAHMVKSQEET | 2.08 |
| ESTIVELGSIFQQLAHMVKTQEET | 1.18 |
| ESTIVELGSIFQQLAHMVKGQEET | 2.02 |
| ESTIVELGSIFQQLAHMVKDQEET | 2.78 |
| ESTIVELGSIFQQLAHMVKYQEET | 3.75 |
| ESTIVELGSIFQQLAHMVKAQEET | 2.19 |
| ESTIVELGSIFQQLAHMVKNQEET | 1.53 |
| ESTIVELGSIFQQLAHMVKFQEET | 1.98 |
| ESTIVELGSIFQQLAHMVKKQEET | 2.86 |
| ESTIVELGSIFQQLAHMVKWQEET | 1.86 |
| ESTIVELGSIFQQLAHMVKPQEET | 1.61 |
| ESTIVELGSIFQQLAHMVKRQEET | 1.76 |
| ESTIVELGSIFQQLADMVKEQEET | 1.78 |
| ESTIVELGSIFQQLAFMVKEQEET | 2.02 |
| ESTIVELGSIFQQLAMMVKEQEET | 3 |
| ESTIVELGSIFQQLATMVKEQEET | 3.09 |
| ESTIVELGSIFQQLAKMVKEQEET | 2.27 |
| ESTIVELGSIFQQLAQMVKEQEET | 1.33 |
| ESTIVELGSIFQQLALMVKEQEET | 2.75 |
| ESTIVELGSIFQQLAEMVKEQEET | 1.96 |

| Variant | protein stability index |
| --- | --- |
| ESTIVELGSIFQQLAGMVKEQEET | 2.13 |
| ESTIVELGSIFQQLAVMVKEQEET | 2.43 |
| ESTIVELGSIFQQLAPMVKEQEET | 4.65 |
| ESTIVELGSIFQQLASMVKEQEET | 2.36 |
| ESTIVELGSIFQQLAAMVKEQEET | 2.13 |
| ESTIVELGSIFQQLARMVKEQEET | 1.79 |
| ESTIVELGSIFQQLANMVKEQEET | 1.97 |
| ESTIVELGSIFQQLAYMVKEQEET | 1.67 |
| ESTIVELGSIFQQLAIMVKEQEET | 1.88 |
| ESTIVELGSIFQQLAHKVKEQEET | 2.06 |
| ESTIVELGSIFQQLAHHVKEQEET | 3.7 |
| ESTIVELGSIFQQLAHSVKEQEET | 3.4 |
| ESTIVELGSIFQQLAHPVKEQEET | 4.59 |
| ESTIVELGSIFQQLAHRVKEQEET | 3 |
| ESTIVELGSIFQQLAHAVKEQEET | 2.83 |
| ESTIVELGSIFQQLAHTVKEQEET | 4.18 |
| ESTIVELGSIFQQLAHGVKEQEET | 3.86 |
| ESTIVELGSIFQQLAHYVKEQEET | 3.29 |
| ESTIVELGSIFQQLAHIVKEQEET | 2.3 |
| ESTIVELGSIFQQLAHEVKEQEET | 3.41 |
| ESTIVELGSIFQQLAHFVKEQEET | 2.46 |
| ESTIVELGSIFQQLAHWVKEQEET | 2.06 |
| ESTIVELGSIFQQLAHLVKEQEET | 1.7 |
| ESTIVELGSIFQQLAHNVKEQEET | 4.16 |

| Variant | protein stability index |
| --- | --- |
| ESTIVELGSIFQQLAHQVKEQEET | 2.26 |
| ESTIVELGSIFQQLAHDVKEQEET | 4.11 |
| ESTIVELGSIFQQLAHCVKEQEET | 3.6 |
| ESTIVELGSIFQQLAHMVKEQEEE | 2.12 |
| ESTIVELGSIFQQLAHMVKEQEED | 1.89 |
| ESTIVELGSIFQQLAHMVKEQEEK | 1.83 |
| ESTIVELGSIFQQLAHMVKEQEEA | 2.17 |
| ESTIVELGSIFQQLAHMVKEQEEH | 2.42 |
| ESTIVELGSIFQQLAHMVKEQEEI | 1.78 |
| ESTIVELGSIFQQLAHMVKEQEEG | 1.97 |
| ESTIVELGSIFQQLAHMVKEQEEC | 1.62 |
| ESTIVELGSIFQQLAHMVKEQEEF | 1.6 |
| ESTIVELGSIFQQLAHMVKEQECT | 1.83 |
| ESTIVELGSIFQQLAHMVKEQEPT | 2.06 |
| ESTIVELGSIFQQLAHMVKEQENT | 1.47 |
| ESTIVELGSIFQQLAHMVKEQEYT | 1.2 |
| ESTIVELGSIFQQLAHMVKEQETT | 1.32 |
| ESTIVELGSIFQQLAHMVKEQEGT | 1.28 |
| ESTIVELGSIFQQLAHMVKEQEDT | 2.19 |
| ESTIVELGSIFQQLAHMVKEQELT | 1.42 |
| ESTIVELGSIFQQLAHMVKEQEKT | 1.48 |
| ESTIVELGSIFQQLAHMVKEQEIT | 2.38 |
| ESTIVELGSIFQQLAHMVKEQEQT | 2.5 |
| ESTIVELGSIFQQLAHMVKEQEHT | 2.11 |

| Variant | protein stability index |
| --- | --- |
| ESTIVELGSIFQQLAHMVKEQEST | 1.23 |
| ESTIVELGSIFQQLAHMVKEQEVT | 3.06 |
| ESTIVELGSIFQQLAHMVKEQERT | 1.77 |
| ESTIVELGSIFQQLAHMVKEQEAT | 1.88 |
| ESTIVELGSIFQQLTHMVKEQEET | 3.66 |
| ESTIVELGSIFQQLGHMVKEQEET | 3.91 |
| ESTIVELGSIFQQLCHMVKEQEET | 2.21 |
| ESTIVELGSIFQQLLHMVKEQEET | 1.76 |
| ESTIVELGSIFQQLFHMVKEQEET | 2.09 |
| ESTIVELGSIFQQLRHMVKEQEET | 2.67 |
| ESTIVELGSIFQQLEHMVKEQEET | 4.21 |
| ESTIVELGSIFQQLWHMVKEQEET | 2.18 |
| ESTIVELGSIFQQLMHMVKEQEET | 1.74 |
| ESTIVELGSIFQQLYHMVKEQEET | 1.74 |
| ESTIVELGSIFQQLIHMVKEQEET | 1.53 |
| ESTIVELGSIFQQLPHMVKEQEET | 4.91 |
| ESTIVELGSIFQQLSHMVKEQEET | 2.99 |
| ESTIVELGSIFQQLNHMVKEQEET | 3.67 |
| ESTIVELGSIFQQLVHMVKEQEET | 2.24 |
| ESTIVELGSIFQQLKHMVKEQEET | 3.1 |
| ESTIVELGSIFQQLQHMVKEQEET | 2.81 |
| ESTIVELGSIFQQLHHMVKEQEET | 3.15 |
